This note sets out measurements from patent US20130281659.

The target of series [1] is K48C, K63C-linked branched Ub trimer.
The target of series [2] is K11C, K48C-linked branched Ub trimer.
Series [3] concerns the target K6C, K48C-linked branched Ub trimer.

B1: A20-OTU (protein)
chain: LVALKTNGDGNCLMHATSQYMWGVQDTDLVLRKALFSTLKETDTRNFKFRWQLESLKSQEFVETGLCYDTRNWNDEWDNLIKMASTDTPMARSGLQYNSLEEIHIFVLCNILRRPIIVISDKMLRSLESGSNFAPLKVGGIYLPLHWPAQECYRYPIVLGYDSHHFVPLVTL
Turning to B1, the “DUB-catalyzed hydrolysis of Ub trimer, SDS-PAGE and western blot” value (“DUB-catalyzed hydrolysis of Ub trimer” below) in series [1] is “A20-OTU cleaved the K48C-linkage in K11C, K48C and K48C, K63C-linked trimers”; in series [2], “A20-OTU cleaved the K48C-linkage in K11C, K48C and K48C, K63C-linked trimers”; in series [3] it was “the same linkage remained intact in the K6C, K48C-linked trimer”.

B2: AMSH (protein)
chain: MSDHGDVSLPPEDRVRALSQLGSAVEVNEDIPPRRYFRSGVEIIRMASIYSEEGNIEHAFILYNKYITLFIEKLPKHRDYKSAVIPEKKDTVKKLKEIAFPKAEELKAELLKRYTKEYTEYNEEKKKEAEELARNMAIQQELEKEKQRVAQQKQQQLEQEQFHAFEEMIRNQELEKERLKIVQEFGKVDPGLGGPLVPDLEKPSLDVFPTLTVSSIQPSDCHTTVRPAKPPVVDRSLKPGALSNSESIPTIDGLRHVVVPGRLCPQFLQLASANTARGVETCGILCGKLMRNEFTITHVLIPKQSAGSDYCNTENEEELFLIQDQQGLITLGWIHTHPTQTAFLSSVDLHTHCSYQMMLPESVAIVCSPKFQETGFFKLTDHGLEEISSCRQKGFHPHSKDPPLFCSCSHVTVVDRAVTITDLR
Take B2: the “DUB-catalyzed hydrolysis of Ub trimer” value in series [1] is “the presence of a Ub appendage at position 48 does not influence cleavage of the K63C-linkage as indicated by the formation of Ub2 and Ub upon hydrolysis of the K48C, K63C-linked trimer”.

B3: IsoT (protein)
chain: MAELSEEALLSVLPTIRVPKAGDRVHKDECAFSFDTPESEGGLYICMNTFLGFGKQYVERHFNKTGQRVYLHLRRTRRPKEEDPATGTGDPPRKKPTRLAIGVEGGFDLSEEKFELDEDVKIVILPDYLEIARDGLGGLPDIVRDRVTSAVEALLSADSASRKQEVQAWDGEVRQVSKHAFSLKQLDNPARIPPCGWKCSKCDMRENLWLNLTDGSILCGRRYFDGSGGNNHAVEHYRETGYPLAVKLGTITPDGADVYSYDEDDMVLDPSLAEHLSHFGIDMLKMQKTDKTMTELEIDMNQRIGEWELIQESGVPLKPLFGPGYTGIRNLGNSCYLNSVVQVLFSIPDFQRKYVDKLEKIFQNAPTDPTQDFSTQVAKLGHGLLSGEYSKPVPESGDGERVPEQKEVQDGIAPRMFKALIGKGHPEFSTNRQQDAQEFFLHLINMVERNCRSSENPNEVFRFLVEEKIKCLATEKVKYTQRVDYIMQLPVPMDAALNKEELLEYEEKKRQAEEEKMALPELVRAQVPFSSCLEAYGAPEQVDDFWSTALQAKSVAVKTTRFASFPDYLVIQIKKFTFGLDWVPKKLDVSIEMPEELDISQLRGTGLQPGEEELPDIAPPLVTPDEPKGSLGFYGNEDEDSFCSPHFSSPTSPMLDESVIIQLVEMGFPMDACRKAVYYTGNSGAEAAMNWVMSHMDDPDFANPLILPGSSGPGSTSAAADPPPEDCVTTIVSMGFSRDQALKALRATNNSLERAVDWIFSHIDDLDAEAAMDISEGRSAADSISESVPVGPKVRDGPGKYQLFAFISHMGTSTMCGHYVCHIKKEGRWVIYNDQKVCASEKPPKDLGYIYFYQRVAS
Turning to B3, the “DUB-catalyzed hydrolysis of Ub trimer” value in series [1], in series [2] and in series [3] was “IsoT efficiently processed all three trimers as evidenced by Western blot analysis” in each case.
